Publication PMC4103484, “Functional effects of polymorphisms on glucocorticoid receptor modulation of human anxiogenic substance-P gene promoter activity in primary amygdala neurones”

Tests used:
[1] = biological target: T1, glucocorticoid receptor alpha (GRα) (human) (UniProt P04150); assay: EMSA; settings: reference; EMSA: 20 fmol biotin probe with 2.0 uM GRα or 10 ug nuclear extract; buffer as Hay et al. 2005 with EDTA replaced by 50 uM ZnSO4; competitor 100x; 6% native …
T1 sequence: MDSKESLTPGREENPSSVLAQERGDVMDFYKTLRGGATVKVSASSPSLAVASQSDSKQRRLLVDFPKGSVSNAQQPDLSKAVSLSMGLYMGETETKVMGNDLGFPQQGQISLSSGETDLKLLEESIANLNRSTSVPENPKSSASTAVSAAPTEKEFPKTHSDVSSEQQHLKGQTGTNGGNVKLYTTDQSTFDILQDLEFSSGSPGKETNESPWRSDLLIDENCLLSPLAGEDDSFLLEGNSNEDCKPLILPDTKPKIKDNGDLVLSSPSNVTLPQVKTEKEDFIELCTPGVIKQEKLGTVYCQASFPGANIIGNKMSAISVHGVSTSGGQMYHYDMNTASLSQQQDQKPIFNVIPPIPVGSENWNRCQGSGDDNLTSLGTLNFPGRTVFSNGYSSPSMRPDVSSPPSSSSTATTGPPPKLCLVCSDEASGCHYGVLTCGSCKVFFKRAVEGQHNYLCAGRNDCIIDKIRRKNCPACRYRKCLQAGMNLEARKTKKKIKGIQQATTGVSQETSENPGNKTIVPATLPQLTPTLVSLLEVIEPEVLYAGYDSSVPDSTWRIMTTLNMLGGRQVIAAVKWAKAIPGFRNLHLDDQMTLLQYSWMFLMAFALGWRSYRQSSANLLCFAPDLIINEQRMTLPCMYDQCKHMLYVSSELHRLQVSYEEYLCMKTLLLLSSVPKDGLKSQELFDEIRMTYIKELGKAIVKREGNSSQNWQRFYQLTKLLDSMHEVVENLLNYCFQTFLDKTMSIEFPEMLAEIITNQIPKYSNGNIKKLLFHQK

[2] = biological target: T2, glucocorticoid receptor alpha (GRα) (human, UniProt P04150 1-777); assay: competition; 100x unlabelled, vs 2GR probe; EMSA: 20 fmol biotin probe with 2.0 uM GRα or 10 ug nuclear extract; buffer as Hay et al. 2005 with EDTA replaced by 50 uM ZnSO4; competitor 100x; 6% native gel, 0.5x TBE pH 8.3; binding salt, pH and temperature not stated; settings: protein: recombinant; chain copies: 2; blunt
[3] = biological target: T2, glucocorticoid receptor alpha (GRα); assay: EMSA; EMSA: 20 fmol biotin probe with 2.0 uM GRα or 10 ug nuclear extract; buffer as Hay et al. 2005 with EDTA replaced by 50 uM ZnSO4; competitor 100x; 6% native gel, 0.5x TBE pH 8.3; binding salt, pH and temperature not stated; settings: protein: recombinant; chain copies: 2; blunt

Q: “GAAGCAAAAAACGTCCTGTTCAACCCCTGCTCCTG (double strand) [SNP-G (SNPGR-G)]” was tested. Which binding signal [1] did it give?
A: 100 % of SNP-G

B1: RO (random oligonucleotide) (dsDNA)
DNA 1: CGAGCACCCTTCACCCTCCAGGCTTAACGG
DNA 2: CCGTTAAGCCTGGAGGGTGAAGGGTGCTCG
Q: Does B1 bind [2]?
A: no binding

B2: GRE-cons (dsDNA)
DNA 1: TAAGTTTATGGTTACAAACTGTTCTTAAAACGAGG
DNA 2: CCTCGTTTTAAGAACAGTTTGTAACCATAAACTTA
Q: Does B2 bind [3]?
A: binds
